These results are taken from publication PMC7774954 (PLoS ONE, 2020).

Where no end group is shown, it is not given here.

Holding throughout (assay): fluorescence polarisation; direct: N-terminally fluorescein-labelled PBM peptide (tracer) with increasing amounts of MBP-PDZ; 384-well plates; triplicate; direct binding model (ProFit)
Common to all, as to details: both partners purified

For assay [1], the target named is T1, SYNJ2BP PDZ domain (human, UniProt P57105 13-100).
T1 sequence (looked up): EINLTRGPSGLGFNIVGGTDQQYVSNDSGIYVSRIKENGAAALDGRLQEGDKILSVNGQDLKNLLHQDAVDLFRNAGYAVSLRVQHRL

In assay [2] the target is T2, NHERF3-1, first PDZ domain of NHERF3 (human, UniProt Q5T2W1 9-90).
T2 sequence (looked up): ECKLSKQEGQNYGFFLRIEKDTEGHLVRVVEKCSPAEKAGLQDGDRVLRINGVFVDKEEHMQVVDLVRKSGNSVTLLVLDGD

Assay [3] deals with T3, MAGI2-2, second PDZ domain of MAGI2 (human, UniProt Q86UL8 426-510).
T3 construct: not shown: His6, N-terminal, kept; MBP, N-terminal, kept

Assay [4] addresses DLG4-3, third PDZ domain of DLG4 (human, UniProt P78352 313-393).
The target of assay [5] is MAGI1-2, second PDZ domain of MAGI1 (human, UniProt Q96QZ7 472-554).
Assay [6] deals with T4, PDZRN3-1, first PDZ domain of PDZRN3 (human, UniProt Q9UPQ7 249-339).
T4 sequence (looked up): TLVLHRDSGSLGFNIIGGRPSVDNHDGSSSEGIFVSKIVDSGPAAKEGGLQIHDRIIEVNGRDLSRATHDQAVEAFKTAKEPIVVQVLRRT

Assay [7] addresses T5, SCRIB-3, third PDZ domain of SCRIB (human, UniProt Q14160 1004-1093).
T5 sequence (looked up): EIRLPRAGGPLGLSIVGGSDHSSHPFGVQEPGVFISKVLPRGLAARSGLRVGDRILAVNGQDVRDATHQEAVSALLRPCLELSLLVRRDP

For assay [8], the target named is T6, PDZRN4-1, first PDZ domain of PDZRN4 (human, UniProt Q6ZMN7 224-314).
T6 sequence (looked up): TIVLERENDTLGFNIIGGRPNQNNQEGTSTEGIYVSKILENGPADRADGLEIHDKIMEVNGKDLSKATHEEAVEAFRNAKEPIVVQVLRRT

T3 sequence (Q86UL8 426-510): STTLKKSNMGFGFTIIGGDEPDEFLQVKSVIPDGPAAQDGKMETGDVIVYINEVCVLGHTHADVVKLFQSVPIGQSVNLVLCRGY
Chain of DLG4-3, third PDZ domain of DLG4 (P78352 313-393): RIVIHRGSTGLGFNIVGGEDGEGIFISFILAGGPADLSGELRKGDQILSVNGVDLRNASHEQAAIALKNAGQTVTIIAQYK
Chain of MAGI1-2, second PDZ domain of MAGI1 (Q96QZ7 472-554): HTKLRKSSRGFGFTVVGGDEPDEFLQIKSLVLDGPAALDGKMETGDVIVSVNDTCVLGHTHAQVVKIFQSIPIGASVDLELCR

For fluorescein-RTRRETQL (source: synthetic peptide) [f16E6, fluorescein-labelled HPV16 E6 PBM peptide], the Kd in assay [1] stood at 2280 nM; in assay [2], 2340 nM; in assay [3] it was 2770 nM; in assay [4] it was 7.27 µM; in assay [5] it was 500 nM; in assay [6], 1080 nM. Moreover, the Kd in assay [7] was 1470 nM; in assay [8], 2930 nM.
